We go through 1 molecule from patent US20210107983A1 (Boehringer Ingelheim, published 2021).

In assay [1] the target is T1, Cyno B7H6-His (cynomolgus monkey).
T1 construct: also called CyB7H6; cyB7-H6
T1 chain: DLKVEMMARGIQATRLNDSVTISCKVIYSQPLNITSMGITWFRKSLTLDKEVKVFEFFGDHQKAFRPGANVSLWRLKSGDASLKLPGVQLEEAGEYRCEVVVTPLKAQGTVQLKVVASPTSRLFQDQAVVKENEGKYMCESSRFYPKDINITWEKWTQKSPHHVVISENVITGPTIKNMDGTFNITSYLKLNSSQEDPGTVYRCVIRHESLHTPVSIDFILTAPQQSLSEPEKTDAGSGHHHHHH
Kind of assay: SPR, binder captured on Protein A/G, B7H6 analyte. On the procedure:
(§1) To determine the affinity of human and cyno B7H6 and human B7H1 to B7H6/CD3 binding proteins, the experiment was performed on a Biacore™ 8K instrument (GE Healthcare Life Sciences). Briefly, the B7H6/CD3 binding protein was captured via Protein A/G. The running buffer for this experiment and all serial dilutions were prepared in HBS-EP+. The CM5 sensor chip was activated with an equal mixture of EDC/NHS across both flow cells for 420 s at a flow rate of 10 μL/min and immobilized with recombinant Protein A/G (50 μg/ml in 10 mM NaOAc, pH 4.5) across all flow cells for 420 s at a flow rate of 10 μL/min resulting in about 2500 RU of Protein A/G on the surface. The sensor chip was deactivated with 1M ethanolamine-HCl across all flow cells for 420 s at a flow rate of 10 μL/min.
(§2) About 700 RU of the B7H6/CD3 binding protein was captured on flow cell 2 of the Protein A/G surface for 60 s at a flow rate of 10 μL/min. The analytes HuB7H6, CyB7H6 and HuB7H1 were injected across both flow cells over captured B7H6/CD3 binding protein for 300 s at a flow rate of 30 μL/min with a dissociation of 1200 s. The concentrations of HuB7H6 and CyB7H6 were 0 nM, 6.25 nM, 12.5 nM, 25 nM, 50 nM and 100 nM. The concentrations of HuB7H1 were 0 nM and 1 μM. The surface was regenerated by injecting 10 mM glycine-HCl, pH 1.5 for 20 s at a flow rate of 30 μL/min across both flow cells.
(§3) The reference flow cell 1 (interactions with sensor surface) and blank (HBS-EP+ or 0 nM analyte) were subtracted from the raw data.
(In general: SPR reads the build-up and loss of mass on a sensor chip optically.)

The next assay addresses T2, Human CD3 E+G HuFc-6xHis (human).
T2 construct: also called HuCD3E+G-hFc; huCD3
Description: SPR, CD3E+G-hFc immobilized, binder analyte. The method, then: To determine the affinity of the B7H6/CD3 binding protein to human and cyno CD3E+G-hFc, the experiment was performed on a Bio-Rad ProteOn™ XPR36 instrument. Briefly, HuCD3E+G-hFc and CyCD3E+G were amine-coupled on a ProteOn™ GLM sensor chip (Bio-Rad) and the B7H6/CD3 binding protein was flowed over the immobilized surface. The running buffer for this experiment and all serial dilutions were prepared in HBS-EP+. The GLM sensor chip was normalized according to Bio-Rad's recommendations. The sensor chip was activated with an equal mixture of EDC/s-NHS in the horizontal direction for 300 s at a flow rate of 30 μL/min HuCD3E+G-hFc was immobilized in the vertical direction at 0.4 μg/mL, 0.2 μg/mL and 0.1 μg/mL in 10 mM acetate pH 4.5 to L1, L2 and L3, respectively, for 300 s at a flow rate of 30 μL/min resulting in about 100 RU of HuCD3E+G-hFc on L1, 40 RU of HuCD3E+G-hFc on L2 and 0 RU of HuCD3E+G-hFc on L3. CyCD3E+G-hFc was immobilized in the vertical direction at 0.4 μg/mL, 0.2 μg/mL and 0.1 μg/mL in 10 mM acetate pH 4.5 to L4, L5 and L6, respectively, for 300 s at a flow rate of 30 μL/min resulting in about 385 RU of […], 170 RU of CyCD3E+G-hFc on L5 and 50 RU of CyCD3E+G-hFc on L6. The sensor chip was deactivated with 1M ethanolamine-HCl in the horizontal direction for 300 s at a flow rate of 30 μL/min.
(§4) The B7H6/CD3 binding protein analyte was injected horizontally over the immobilized surface for 300 s at a flow rate of 30 μL/min with a dissociation of 600 s. The concentrations of the B7H6/CD3 binding protein used were 0 nM, 1.2 nM, 3.7 nM, 11.1 nM, 33.3 nM and 100 nM.
The interspot (interactions with sensor surface) and blank (HBS-EP+ or 0 nM analyte) were subtracted from the raw data.

The target in assay [2] is T3, chicken egg white lysozyme (chicken, UniProt P00698 19-147).
T3 construct: unrelated positively charged protein, amine-coupled to the chip; also called Lysozyme (positive)
T3 sequence (P00698 19-147): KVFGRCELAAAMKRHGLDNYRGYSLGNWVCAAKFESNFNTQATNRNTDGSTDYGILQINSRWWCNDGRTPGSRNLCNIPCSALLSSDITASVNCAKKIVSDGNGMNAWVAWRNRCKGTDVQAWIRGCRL
Kind of assay: SPR, 1 µM binder over immobilized lysozyme. The method, then:
(§5) The experiment was performed on a Biacore® T200 SPR system (GE Healthcare Life Sciences). The dilution, surface preparation, and binding experiments were performed at 25° C. in 1×HBS-EP buffer prepared from 10×HBS-EP. The flow rate for both the immobilization protocol and binding experiment was at 5 μL/min.
(§6) To prepare the surface for the non-specific binding experiment, chicken egg white lysozyme and trypsin inhibitor from Glycine max soybean were coupled manually to a Biacore® series S CM5 sensor chip (GE Healthcare sciences) with the surface density of 3000-5000 RU using the amine coupling kit according to the manufacture instructions. Samples were prepared at 1 μM in 1×HBS-EP buffer. The samples were injected over activated surfaces with a 10 min association and 15 min dissociation. The data was collected using Biacore® T200 Control Software version 2.0.1 and analyzed using Biacore® T200 Evaluation Software version 3.0 (GE Healthcare Life Sciences).

A further assay deals with T4, Human B7H1 (human, UniProt Q9NZQ7 20-239).
T4 construct: also called HuB7H1; huB7-H1
T4 sequence (Q9NZQ7 other isoform, or with tags, fused parts or gaps limits assumed): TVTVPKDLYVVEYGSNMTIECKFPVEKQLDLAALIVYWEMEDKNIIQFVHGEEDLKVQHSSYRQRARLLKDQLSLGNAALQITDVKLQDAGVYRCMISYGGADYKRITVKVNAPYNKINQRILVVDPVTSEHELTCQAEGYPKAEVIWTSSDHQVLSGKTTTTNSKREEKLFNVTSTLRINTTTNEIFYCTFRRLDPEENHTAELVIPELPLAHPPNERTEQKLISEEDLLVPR
Kind of assay: SPR, binder captured on Protein A/G, HuB7H1 analyte. On the procedure: as §1, §2, §3

The target of assay [3] is T5, trypsin inhibitor from Glycine max soybean (Glycine max (soybean)).
T5 construct: unrelated negatively charged protein, amine-coupled to the chip
T5 sequence (P01070 25-205): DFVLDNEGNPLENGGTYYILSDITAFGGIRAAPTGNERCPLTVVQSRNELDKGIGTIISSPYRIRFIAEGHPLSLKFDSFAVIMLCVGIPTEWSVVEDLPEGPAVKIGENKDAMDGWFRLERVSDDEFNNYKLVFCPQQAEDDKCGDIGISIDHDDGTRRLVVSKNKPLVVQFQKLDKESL
Description: SPR, 1 µM binder over immobilized trypsin inhibitor. The method, then: as §5, §6

For assay [4], the target named is T1, Cyno B7H6-His. Kind of assay: ratio of SPR KDs cyno/human. On the procedure: as §2, §3, §4

Usually Kd stands for the free concentration of one partner at which half of the binding sites on the other are occupied at equilibrium, for simple one-to-one binding. A low value points to tighter binding.

T2 sequence (chain, as listed by the source limits assumed): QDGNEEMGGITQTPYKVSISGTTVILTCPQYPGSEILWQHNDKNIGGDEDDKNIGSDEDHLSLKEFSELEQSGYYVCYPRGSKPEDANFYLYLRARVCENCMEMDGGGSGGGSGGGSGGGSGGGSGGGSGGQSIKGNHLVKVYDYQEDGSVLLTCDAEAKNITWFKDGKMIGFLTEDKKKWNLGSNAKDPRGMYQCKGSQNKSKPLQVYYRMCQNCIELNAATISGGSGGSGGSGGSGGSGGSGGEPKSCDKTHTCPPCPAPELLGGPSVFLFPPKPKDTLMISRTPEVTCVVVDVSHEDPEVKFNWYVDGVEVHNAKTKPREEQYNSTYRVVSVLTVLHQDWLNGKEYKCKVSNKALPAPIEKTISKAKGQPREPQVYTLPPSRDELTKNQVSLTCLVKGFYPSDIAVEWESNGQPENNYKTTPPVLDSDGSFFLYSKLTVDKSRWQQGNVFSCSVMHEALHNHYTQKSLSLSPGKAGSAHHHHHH

B1: B7H6#17/CD3#1 (bispecific antibody, human IgG1, kappa, lambda, L234A L235A)
chain 1: DIQMTQSPSSLSASVGDRVTITCKASQNVGKYVAWYQQKPGKAPKSLIYSASNRYDGVPSRFSGSGSGTDFTLTISSLQPEDFTTYYCQQYISYPLTFGAGTKLEIKRTVAAPSVFIFPPSDEQLKSGTASVVCLLNNFYPREAKVQWKVDNALQSGNSQESVTEQDSKDSTYSLSSTLTLSKADYEKHKVYACEVTHQGLSSPVTKSFNRGECGGGGSEGKSSGSGSESKSTEGKSSGSGSESKSTGGGGSQVQLVQSGAEVKKPGASVKVSCKASGYTFTSYWMNWMRQAPGQGLEWMGGIYLSGDSTDYNEKFKGRVTMTVDTSTSTVYMELSSLRSEDTAVYYCTRRGDYFGDFWGQGTLVTVSSASTKGPSVFPLAPSSKSTSGGTAALGCLVKDYFPEPVTVSWNSGALTSGVHTFPAVLQSSGLYSLSSVVTVPSSSLGTQTYICNVNHKPSNTKVDKRVEPKSCDKTHTCPPCPAPEAAGGPSVFLFPPKPKDTLMISRTPEVTCVVVDVSHEDPEVKFNWYVDGVEVHNAKTKPREEQYNSTYRVVSVLTVLHQDWLNGKEYKCKVSNKALPAPIEKTISKAKGQPREPQVYTLPPSREEMTKNQVSLWCLVKGFYPSDIAVEWESNGQPENNYKTTPPVLDSDGSFFLYSKLTVDKSRWQQGNVFSCSVMHEALHNHYTQKSLSLSPG
chain 2: EAVVTQEPSLTVSPGGTVTLTCRSSTGAVTTSNYANWVQEKPGQLPRGLIGGTNKRAPWVPARFSGSLLGGKAALTLSGAQPEDEAEYFCALWYSNLWVFGGGTKLTVLGQPKAAPSVTLFPPSSEELQANKATLVCLISDFYPGAVKVAWKADGSPVNTGVETTTPSKQSNNKYAASSYLSLTPEQWKSHRSYSCQVTHEGSTVEKTVAPAECSGGGGSEGKSSGSGSESKSTEGKSSGSGSESKSTGGGGSEVQLVESGGGLVQPGGSLKLSCAASGFTFNTYAMNWVRQAPGKGLEWVARIRSKYNNYATYYADSVKDRFTISRDDSKNTAYLQMNNLKTEDTAVYYCVRHGNFGNSYVSWFAYWGQGTLVTVSAASTKGPSVFPLAPSSKSTSGGTAALGCLVKDYFPEPVTVSWNSGALTSGVHTFPAVLQSSGLYSLSSVVTVPSSSLGTQTYICNVNHKPSNTKVDKRVEPKSCDKTHTCPPCPAPEAAGGPSVFLFPPKPKDTLMISRTPEVTCVVVDVSHEDPEVKFNWYVDGVEVHNAKTKPREEQYNSTYRVVSVLTVLHQDWLNGKEYKCKVSNKALPAPIEKTISKAKGQPREPQVYTLPPSREEMTKNQVSLSCAVKGFYPSDIAVEWESNGQPENNYKTTPPVLDSDGSFFLVSKLTVDKSRWQQGNVFSCSVMHEALHNRFTQKSLSLSPG
notes: scFab-Fc heterodimer, one B7H6 chain and one CD3 chain
For the molecule B1, the Kd amounted to 8.4 nM with Cyno B7H6-His [1] and 13.5 nM with Human CD3 E+G HuFc-6xHis. The “Non-specific binding (RU)” value worked out at 15.3 RU in assay [2] and 88.4 RU in assay [3]. Further, the binding result with Human B7H1 is listed as “no binding (tested: 1 µM)”. Moreover, in the assay with Cyno B7H6-His [4], the “cy/hu B7-H6” value worked out at 1.
